According to the Human Domainome abundance scans (Beltran et al. 2025):
± gives the uncertainty stated by the source.

Experiment: abundance fitness (aPCA) (normalised: wild type 0, dead -1); higher = more abundant; growth selection in yeast, the domain comes from the species named
Settings: Homo sapiens

Substance | abundance fitness
Gamma-crystallin D G100T, P07320 | -0.889 ± 0.45
Gamma-crystallin D G100F, P07320 | -0.779 ± 0.17
Gamma-crystallin D G100Q, P07320 | -0.565 ± 0.17
Gamma-crystallin D G100K, P07320 | -0.325 ± 0.17
Gamma-crystallin D G100I, P07320 | -0.826 ± 0.36
Gamma-crystallin D I103R, P07320 | 0.055 ± 0.064
Gamma-crystallin D G100C, P07320 | -0.117 ± 0.096
Gamma-crystallin D G100Y, P07320 | -0.839 ± 0.32
Gamma-crystallin D I103E, P07320 | 0.037 ± 0.13
Gamma-crystallin D G100D, P07320 | 0.069 ± 0.11
Gamma-crystallin D G100L, P07320 | -0.266 ± 0.075
Gamma-crystallin D G100H, P07320 | -0.561 ± 0.28
Gamma-crystallin D G100E, P07320 | -0.069 ± 0.085
Gamma-crystallin D I103Q, P07320 | -0.03 ± 0.13
Gamma-crystallin D L112E, P07320 | -0.383 ± 0.045
Gamma-crystallin D G100R, P07320 | -0.437 ± 0.073
Gamma-crystallin D G100M, P07320 | -0.356 ± 0.14
Gamma-crystallin D G100V, P07320 | -1.13 ± 0.16
Gamma-crystallin D I103H, P07320 | -0.186 ± 0.088
